According to article doi:10.1101/2023.03.27.534325, “Distinct role of TGN-resident clathrin adaptors for Rab5 activation in the TGN-endosome trafficking pathway” (bioRxiv, 2023):
Positions count from the first letter of the chain named.

What was measured:
[1] = target: T1, GFP-tagged active Vps21p mutant (Q66L) (S. cerevisiae, UniProt P36017 1-210, Q66L); assay: pull-down; extract of yeast cells expressing GFP-tagged Vps21p mutant incubated with GST-GNB-bound Glutathione sepharose-4B; washed; incubated with Nluc-RbNT at 200 nM; bound fractions blotted with anti-6×His or anti-GFP antibody; conditions: both partners purified
T1 construct: Vps21p (yeast Rab5), Saccharomyces cerevisiae, constitutively active mutant; also called Vps21Q66L; constitutively active Q66L mutant of Vps21p
T1 sequence (looked up): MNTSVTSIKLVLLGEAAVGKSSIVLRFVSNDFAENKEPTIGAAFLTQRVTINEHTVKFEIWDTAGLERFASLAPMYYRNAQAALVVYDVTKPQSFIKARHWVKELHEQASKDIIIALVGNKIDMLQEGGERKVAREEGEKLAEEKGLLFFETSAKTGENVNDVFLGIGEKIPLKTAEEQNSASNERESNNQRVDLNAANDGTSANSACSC

[2] = target: T2, GFP-ALFA-Vps21p (S. cerevisiae, UniProt P36017 1-210); assay: pull-down; GFP-ALFA-Vps21p from 600 μg cleared lysate of wild-type yeast held on GST-ANB Glutathione sepharose-4B; washed (20 mM Tris-HCl pH 8.0, 500 mM NaCl, 10 mM MgCl2, 0.1% NP-40); 10 pmole 6×His-RbNT-Nluc added, 1 hr in the cold room; eluted with ALFA peptide; Nluc activity read. Also run on ent3Δ ent5Δ, ent3Δ ent5Δ apl4Δ, pik1-1, pik1-1 ent3Δ, pik1-1 ypt31ts and pik1-1 ypt31ts gga1Δ gga2Δ cells.; conditions: both partners purified
T2 construct: Vps21p (yeast Rab5), Saccharomyces cerevisiae; The ALFA peptide lies between GFP and Vps21p, by the printed name; also called Rab5; yeast Rab5 (Vps21p); not shown: GFP, N-terminal, kept; ALFA peptide, N-terminal, kept
T2 sequence (looked up): T1 sequence (looked up) with L66Q

B1: 6×His-Nano luciferase (Nluc)-Rabenosyn5 N-terminal fragment (domain or fragment, human, UniProt Q9H1K0 1-40, looked up)
chain: MASLDDPGEVREGFLCPLCLKDLQSFYQLHSHYEEEHSGE
notes: Rabenosyn-5, human, N-terminal fragment (1-40 a.a.), RbNT; The legends name it 6×His-Nluc-RbNT and the methods 6×His-RbNT-Nluc; The cloning sites (Nluc at XhoI/EcoRI, RbNT at EcoRI/HindIII of pColdI) fit His-Nluc-RbNT; also called Nluc-RbNT; 6×His-RbNT-Nluc; source: E. coli KRX, purified (Ni-NTA agarose); not shown: His6, N-terminal, kept; Nano luciferase, N-terminal, kept
Q: What does the source list for B1?
A: binding result [1]: binds; binding result [2]: binds
